Measured values taken from US20250144104, “DISCOVERY OF A NEW INHIBITOR FOR THE YTH DOMAIN-CONTAINING M6A RNA READERS” (The Trustees of Boston College, published 2025).

Legend:
FTO = FTO (UniProt Q9C0B1 Q9C0B1:1-505); experiment: FP; value only in figure; 50 mM borate pH 7.5; details: tags: His-tag (Ni resin purified), E. coli BL21(DE3); label: 5'-FAM
YTHDF2 YTH domain [1] = target: T1, YTHDF2 YTH domain (UniProt Q9Y5A9 Q9Y5A9:383-553); experiment: FP; value only in figure; 25 mM Tris-HCl pH 7.5, 150 mM NaCl; details: tags: N-terminal His-tag (pET28a), E. coli BL21(DE3); label: 5'-FAM
T1 sequence: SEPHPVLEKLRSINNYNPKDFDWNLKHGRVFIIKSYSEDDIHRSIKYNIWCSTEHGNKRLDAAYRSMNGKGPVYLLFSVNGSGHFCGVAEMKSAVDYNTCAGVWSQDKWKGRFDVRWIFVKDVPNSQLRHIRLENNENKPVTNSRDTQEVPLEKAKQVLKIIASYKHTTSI
Experimental: (§1) Fluorescence polarization (FP) experiments were performed following the previously reported FP assay conditions for FAM-labeled RNA and YTH domains. Briefly, experiments were conducted in the binding buffer containing 25 mM Tris-HCl, pH 7.5, and 150 mM NaCl[50]. The same binding buffer was used in this study unless otherwise specified. RNA samples were diluted to 50 nM from the stock solutions by the binding buffer. YTH domain proteins were thawed, buffer exchanged into the binding buffer at 4° C. using the 10 kDa-cutoff concentrators (Sigma-Aldrich), and adjusted to 2× of the highest concentration used in the binding assay. […] RNase inhibitor (SUPERaseIn, Invitrogen) was added. 40 L protein solutions with various concentrations were prepared by serial dilution using the binding buffer. Subsequently, we added 40 L diluted RNA into each 40 L protein solution, mixed, and incubated at room temperature for 30 minutes. The final concentration of FAM-m⁶A-RNA or FAM-A-RNA was constant at 25 nM, and the YTH-domain protein concentrations varied from 10 nM to 24 μM. […] After incubation, samples were transferred to a black polypropylene 384-well round-bottom plate (Cellvis) and FP was measured on a Synergy™ Neo2 Multimode Microplate Reader at the wavelength of 485/20 nm for excitation and 528/20 nm for emission at 25° C.

YTHDF3 YTH domain [2] = target: T2, YTHDF3 YTH domain (UniProt Q7Z739 Q7Z739:391-585); experiment: as above; details: tags: N-terminal His-tag (pET28a), E. coli BL21(DE3); label: 5'-FAM
T2 sequence: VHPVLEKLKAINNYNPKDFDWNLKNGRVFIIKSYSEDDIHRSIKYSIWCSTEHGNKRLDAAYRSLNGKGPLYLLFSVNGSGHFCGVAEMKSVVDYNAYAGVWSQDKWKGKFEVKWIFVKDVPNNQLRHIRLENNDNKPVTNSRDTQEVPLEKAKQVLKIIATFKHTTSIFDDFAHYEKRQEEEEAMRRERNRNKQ
Experimental: as §1

YTHDF1 YTH domain = target: T3, YTHDF1 YTH domain (UniProt Q9BYJ9 Q9BYJ9:375-552); experiment: FP; 25 mM Tris-HCl pH 7.5, 150 mM NaCl, 25 C; details: tags: N-terminal His-tag (pET28a), E. coli BL21(DE3); label: 5'-FAM
T3 sequence: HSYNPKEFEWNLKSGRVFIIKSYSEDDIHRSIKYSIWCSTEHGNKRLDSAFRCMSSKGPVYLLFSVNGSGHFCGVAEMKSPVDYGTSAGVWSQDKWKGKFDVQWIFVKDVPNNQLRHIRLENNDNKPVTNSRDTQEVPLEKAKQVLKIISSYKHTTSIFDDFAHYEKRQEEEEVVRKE
Experimental: as §1

YTHDC1 YTH domain [3] = target: T4, YTHDC1 YTH domain (UniProt Q96MU7 Q96MU7:345-509); experiment: EMSA; 20 nM protein, 25 nM RNA, 10 mM HEPES, 50 mM KCl, 1 mM EDTA; complex inhibited by N-7
YTHDC1 YTH domain [4] = target: T4, YTHDC1 YTH domain; experiment: competition; value only in figure; 2 uM protein, 25 nM FAM-m6A-RNA
YTHDF2 YTH domain [5] = target: T1, YTHDF2 YTH domain; experiment: as above; details: tags: N-terminal His-tag (pET28a), E. coli BL21(DE3); label: 5'-biotin
YTHDF3 YTH domain [6] = target: T2, YTHDF3 YTH domain; experiment: as above; details: tags: N-terminal His-tag (pET28a), E. coli BL21(DE3); label: 5'-biotin
YTHDC2 YTH domain = target: T5, YTHDC2 YTH domain (UniProt Q9H6S0 Q9H6S0:1285-1424); experiment: competition; value only in figure; 10 uM protein, 25 nM FAM-m6A-RNA; details: tags: N-terminal His-tag (pET28a), E. coli BL21(DE3); label: FAM
T5 sequence: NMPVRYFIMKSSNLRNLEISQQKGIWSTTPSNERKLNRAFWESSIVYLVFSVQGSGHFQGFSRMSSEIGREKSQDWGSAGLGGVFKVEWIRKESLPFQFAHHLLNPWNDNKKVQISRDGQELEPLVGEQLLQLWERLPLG

Sequence of FTO (Q9C0B1 whole entry, the tested form may be a part, one chain of several): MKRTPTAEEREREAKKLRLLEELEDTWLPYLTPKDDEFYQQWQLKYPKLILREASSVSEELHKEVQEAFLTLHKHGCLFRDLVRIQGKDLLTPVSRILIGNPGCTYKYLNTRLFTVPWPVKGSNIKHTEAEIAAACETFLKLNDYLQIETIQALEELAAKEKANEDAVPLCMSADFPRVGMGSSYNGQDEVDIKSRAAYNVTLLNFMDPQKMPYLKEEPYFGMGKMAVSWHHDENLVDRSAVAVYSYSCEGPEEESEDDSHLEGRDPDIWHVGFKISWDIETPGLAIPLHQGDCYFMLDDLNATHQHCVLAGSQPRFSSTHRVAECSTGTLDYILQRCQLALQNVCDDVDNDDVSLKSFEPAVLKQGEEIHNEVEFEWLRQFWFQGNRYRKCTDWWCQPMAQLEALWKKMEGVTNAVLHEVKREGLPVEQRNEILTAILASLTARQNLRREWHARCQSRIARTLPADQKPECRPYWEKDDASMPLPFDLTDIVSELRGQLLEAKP

B1: FAM-m6A-RNA (ssRNA)
RNA: GAACCGGACUGUCUUA
modifications: m6A at position 8
B1: binds (FTO); binds (YTHDF2 YTH domain [1]); binds (YTHDF3 YTH domain [2]). For the same binder, the Kd (YTHDF1 YTH domain) was 800 nM and the binding result (YTHDC1 YTH domain [3]) was “binds”.

B2: m6A-RNA (non-fluorescent) (ssRNA)
RNA: GAACCGGACUGUCUUA
modifications: m6A at position 8
B2: binds (YTHDC1 YTH domain [4]); binds (YTHDF2 YTH domain [5]); binds (YTHDF3 YTH domain [6]). B2: binds (YTHDC2 YTH domain).
